Substrate: Nc1ncnc2c1ncn2[C@@H]1O[C@H](COP(=O)(O)OP(=O)(O)OP(=O)(O)O)[C@@H](O)[C@H]1O
Experiment: malachite green ATP hydrolysis assay, Michaelis-Menten Km
Assay type: biochemical, Homo sapiens
Conditions: Mg2+ N-terminal ATPase site

B1: Type IIα DNA topoisomerase (TopoIIα) (Homo sapiens) (protein)
chain: MEVSPLQPVNENMQVNKIKKNEDAKKRLSVERIYQKKTQLEHILLRPDTYIGSVELVTQQMWVYDEDVGINYREVTFVPGLYKIFDEILVNAADNKQRDPKMSCIRVTIDPENNLISIWNNGKGIPVVEHKVEKMYVPALIFGQLLTSSNYDDDEKKVTGGRNGYGAKLCNIFSTKFTVETASREYKKMFKQTWMDNMGRAGEMELKPFNGEDYTCITFQPDLSKFKMQSLDKDIVALMVRRAYDIAGSTKDVKVFLNGNKLPVKGFRSYVDMYLKDKLDETGNSLKVIHEQVNHRWEVCLTMSEKGFQQISFVNSIATSKGGRHVDYVADQIVTKLVDVVKKKNKGGVAVKAHQVKNHMWIFVNALIENPTFDSQTKENMTLQPKSFGSTCQLSEKFIKAAIGCGIVESILNWVKFKAQVQLNKKCSAVKHNRIKGIPKLDDANDAGGRNSTECTLILTEGDSAKTLAVSGLGVVGRDKYGVFPLRGKILNVREASHKQIMENAEINNIIKIVGLQYKKNYEDEDSLKTLRYGKIMIMTDQDQDGSHIKGLLINFIHHNWPSLLRHRFLEEFITPIVKVSKNKQEMAFYSLPEFEEWKSSTPNHKKWKVKYYKGLGTSTSKEAKEYFADMKRHRIQFKYSGPEDDAAISLAFSKKQIDDRKEWLTNFMEDRRQRKLLGLPEDYLYGQTTTYLTYNDFINKELILFSNSDNERSIPSMVDGLKPGQRKVLFTCFKRNDKREVKVAQLAGSVAEMSSYHHGEMSLMMTIINLAQNFVGSNNLNLLQPIGQFGTRLHGGKDSASPRYIFTMLSSLARLLFPPKDDHTLKFLYDDNQRVEPEWYIPIIPMVLINGAEGIGTGWSCKIPNFDVREIVNNIRRLMDGEEPLPMLPSYKNFKGTIEELAPNQYVISGEVAILNSTTIEISELPVRTWTQTYKEQVLEPMLNGTEKTPPLITDYREYHTDTTVKFVVKMTEEKLAEAERVGLHKVFKLQTSLTCNSMVLFDHVGCLKKYDTVLDILRDFFELRLKYYGLRKEWLLGMLGAESAKLNNQARFILEKIDGKIIIENKPKKELIKVLIQRGYDSDPVKAWKEAQQKVPDEEENEESDNEKETEKSDSVTDSGPTFNYLLDMPLWYLTKEKKDELCRLRNEKEQELDTLKRKSPSDLWKEDLATFIEELEAVEAKEKQDEQVGLPGKGGKAKGKKTQMAEVLPSPRGQRVIPRITIEMKAEAEKKNKKKIKNENTEGSPQEDGVELEGLKQRLEKKQKREPGTKTKKQTTLAFKPIKKGKKRNPWSDSESDRSSDESNFDVPPRETEPRRAATKTKFTMDLDSDEDFSDFDEKTDDEDFVPSDASPPKTKTSPKLSNKELKPQKSVVSDLEADDVKGSVPLSSSPPATHFPDETEITNPVPKKNVTVKKTAAKSQSSTSTTGAKKRAAPKGTKRDPALNSGVSQKPDPAKTKNRRKRKPSTSDDSDSNFEKIVSKAVTSKKSKGESDDFHMDFDSAVAPRAKSVRAKKPIKYLEESDEDDLF
notes: recombinant human TopoIIα
  Km: 390 ± 50 µM

Source: paper PMC3229241, “Neoamphimedine Circumvents Metnase-Enhanced DNA Topoisomerase IIα Activity Through ATP-Competitive Inhibition” (2011)
